This experiment deals with T1, heat shock factor 1 (human (endogenous in HepG2)), Q00613.
T1 chain: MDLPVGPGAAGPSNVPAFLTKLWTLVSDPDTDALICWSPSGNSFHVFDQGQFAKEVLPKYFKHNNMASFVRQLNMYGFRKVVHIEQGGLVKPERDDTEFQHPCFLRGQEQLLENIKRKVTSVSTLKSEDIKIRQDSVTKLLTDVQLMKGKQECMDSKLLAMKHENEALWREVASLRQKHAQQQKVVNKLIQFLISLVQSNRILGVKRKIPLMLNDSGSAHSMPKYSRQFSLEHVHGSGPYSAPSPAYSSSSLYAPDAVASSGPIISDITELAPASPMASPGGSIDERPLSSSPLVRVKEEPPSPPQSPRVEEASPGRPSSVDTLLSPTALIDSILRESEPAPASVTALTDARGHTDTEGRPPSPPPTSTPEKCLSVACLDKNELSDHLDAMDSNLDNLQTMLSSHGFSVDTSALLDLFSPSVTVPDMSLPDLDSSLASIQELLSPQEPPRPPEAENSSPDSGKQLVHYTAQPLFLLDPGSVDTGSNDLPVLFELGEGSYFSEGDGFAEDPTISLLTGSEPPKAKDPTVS
Briefly: cross-linking. The following applies: remark: other sources report otherwise.

The source of these data is article PMC2950225.

B1: heat shock factor 1, Q00613 1-529 (natural protein)
chain: T1 chain
Consider B1, for which the stoichiometry N (usually a count of units in the complex or per binding partner) is 3.
